By Km is commonly meant the substrate concentration at which the rate is half of its maximum.

The values below come from paper PMC6265302, “Widespread bacterial lysine degradation proceeding via glutarate and L-2-hydroxyglutarate” (Nature Communications, 2018).

Substrate in data set [1]: NCCCCCN
Description: purified protein. Format: biochemical, Escherichia coli. The note with it: coupled with PatD (rate-limiting dehydrogenase), 5 mM α-ketoglutarate, 500 µM NAD+, pH 8.0, room temperature.

Substrate in data set [2]: NCCCCN
Description: purified protein. The data set is classed as biochemical, Escherichia coli. As to conditions: coupled with PatD (rate-limiting dehydrogenase), 5 mM α-ketoglutarate, 500 µM NAD+, pH 8.0, room temperature.

Substrate in data set [3]: NCCCC(=O)O
Description: purified protein. The note with it: coupled with GabD (rate-limiting dehydrogenase), 5 mM α-ketoglutarate, 500 µM NADP+, pH 8.0, room temperature.

Substrate in data set [4]: NCCCCC(=O)O
Description: purified protein. Format: biochemical, Escherichia coli. As to conditions: coupled with GabD (rate-limiting dehydrogenase), 5 mM α-ketoglutarate, 500 µM NADP+, pH 8.0, room temperature.

Substrate in data set [5]: O=C(O)CCC(=O)C(=O)O
Description: O2 consumption, Clark electrode. As to conditions: 5 mM glutarate, 4 µM Fe(NH4)2SO4, 400 µM ascorbate, MOPS pH 7.2, 30 °C. Format: biochemical, Escherichia coli.

Substrate in data set [6]: O=C(O)CCCC(=O)O
Description: O2 consumption, Clark electrode. The data set is classed as biochemical, Escherichia coli. The note with it: 1 mM α-ketoglutarate, 4 µM Fe(NH4)2SO4, 400 µM ascorbate, MOPS pH 7.2, 30 °C.

B1: PatA (Escherichia coli K-12) (protein)
chain: MNRLPSSASALACSAHALNLIEKRTLDHEEMKALNREVIEYFKEHVNPGFLEYRKSVTAGGDYGAVEWQAGSLNTLVDTQGQEFIDCLGGFGIFNVGHRNPVVVSAVQNQLAKQPLHSQELLDPLRAMLAKTLAALTPGKLKYSFFCNSGTESVEAALKLAKAYQSPRGKFTFIATSGAFHGKSLGALSATAKSTFRKPFMPLLPGFRHVPFGNIEAMRTALNECKKTGDDVAAVILEPIQGEGGVILPPPGYLTAVRKLCDEFGALMILDEVQTGMGRTGKMFACEHENVQPDILCLAKALGGGVMPIGATIATEEVFSVLFDNPFLHTTTFGGNPLACAAALATINVLLEQNLPAQAEQKGDMLLDGFRQLAREYPDLVQEARGKGMLMAIEFVDNEIGYNFASEMFRQRVLVAGTLNNAKTIRIEPPLTLTIEQCELVIKAARKALAAMRVSVEEA
notes: purified enzyme, cloning not described in main text; assayed coupled with PatD
On to B1, for which the Km in data set [1] came to 370 ± 50 µM; in data set [2], 1430 ± 70 µM.

B2: GabT (Escherichia coli K-12) (protein)
chain: MNSNKELMQRRSQAIPRGVGQIHPIFADRAENCRVWDVEGREYLDFAGGIAVLNTGHLHPKVVAAVEAQLKKLSHTCFQVLAYEPYLELCEIMNQKVPGDFAKKTLLVTTGSEAVENAVKIARAATKRSGTIAFSGAYHGRTHYTLALTGKVNPYSAGMGLMPGHVYRALYPCPLHGISEDDAIASIHRIFKNDAAPEDIAAIVIEPVQGEGGFYASSPAFMQRLRALCDEHGIMLIADEVQSGAGRTGTLFAMEQMGVAPDLTTFAKSIAGGFPLAGVTGRAEVMDAVAPGGLGGTYAGNPIACVAALEVLKVFEQENLLQKANDLGQKLKDGLLAIAEKHPEIGDVRGLGAMIAIELFEDGDHNKPDAKLTAEIVARARDKGLILLSCGPYYNVLRILVPLTIEDAQIRQGLEIISQCFDEAKQ
notes: full ORF, N-terminal 6xHis tag (pET28a), expressed in E. coli BL21(DE3); assayed coupled with GabD
For B2, the results for the Michaelis constant (Km) in data set [3] and in data set [4] were 197 ± 27 µM and 439 ± 29 µM, respectively.

B3: CsiD (Escherichia coli K-12) (protein)
chain: MNALTAVQNNAVDSGQDYSGFTLTPSAQSPRLLELTFTEQTTKQFLEQVAEWPVQALEYKSFLRFRVAKILDDLCANQLQPLLLKTLLNRAEGALLINAVGVDDVKQADEMVKLATAVAHLIGRSNFDAMSGQYYARFVVKNVDNSDSYLRQPHRVMELHNDGTYVEEITDYVLMMKIDEQNMQGGNSLLLHLDDWEHLDNYFRHPLARRPMRFAAPPSKNVSKDVFHPVFDVDQQGRPVMRYIDQFVQPKDFEEGVWLSELSDAIETSKGILSVPVPVGKFLLINNLFWLHGRDRFTPHPDLRRELMRQRGYFAYASNHYQTHQ
notes: full ORF, N-terminal 6xHis tag (pET28a), expressed in E. coli BL21(DE3); Fe(II); homotetramer
As to B3, the Km is 100 ± 7 µM in data set [5] and 650 ± 20 µM in data set [6].
